Assays:
[1] = target: human Angiotensin Converting Enzyme 2 (ACE2, amino acids 19-615) fused to human IgG Fc (human) (UniProt Q9BYF1)
[2] = target: human Angiotensin Converting Enzyme 2 (ACE2, amino acids 19-615) fused to human IgG Fc (human) (UniProt Q9BYF1); assay: SPR

| Substance | reduction of the surface membrane ACE2 level on pericytes (immunohistochemistry, overlap with PDGFRβ) after 3 h of RBD (0.7 mg/l) on hamster brain slices; ACE2 is the endogenous hamster protein [1] [%] | percent reduction of binding against RBD-WT [2] [%] |
| --- | --- | --- |
| SARS-CoV-2 receptor binding domain (RBD, original Wuhan variant), amino acids 330-532 (domain or fragment) | 32 | – |
| SARS-CoV-2 receptor binding domain Y489R mutant (RBD-Y489R) (domain or fragment; other documents disagree on this pair) | – | 94 |

Reference: PMC9384509
